Literature values as cited in publication PMC11045845 (Nature Communications, 2024).
No end group written: not given here.

Legend:
[1] = literature values for comparison
Protocol: Upon increasing the lipid concentration, the intensity at the emission maximum increased and the position of the maximum was blue-shifted to lower wavelengths. A maximum blue shift of (18 ± 2) nm in the presence of 2 mM POPC was determined (Fig. 2a, blue curve, Fig. 2b), accompanied by an increase in the maximum fluorescence intensity (Fig. 2a, c). The observed blue shift indicates the partitioning of the L-trypt ...

[2] = glycerylmonooleate BLMs
From the text: For further support, single-channel proton conductance measurements would be desirable but cannot be performed at physiological conditions owing to orders of magnitudes too small proton concentrations.

In the case of “cecropin A (KWKLFKKIEKVGQNIRDGIIKAGPAVAVVGQATQIAK; ends and bridges not checked; UniProt P01507 27-63, looked up) [antimicrobial peptide]”, the blue shift [1] is listed as 15 nm.
For gramicidin A, the “single-channel conductance GK+” value [2] is given as “≈ 29 pS”.
In the case of melittin, the blue shift [1] is listed as “around 20 nm”.
